The target of assay [1] is papain (UniProt P00784). In words: SPR, cystatin immobilised on NTA chip via His tag, papain in solution. Background: Surface plasmon resonance follows binding to a sensor surface in real time, without labels.
In assay [2] the target is papain (UniProt P00784). Briefly: cell-based or functional assay.
Assay [3] addresses papain (UniProt P00784). In words: SPR; text value differs from Table 3 (4.7 × 10^-9).

Sequence of papain (P00784 134-345 limits assumed): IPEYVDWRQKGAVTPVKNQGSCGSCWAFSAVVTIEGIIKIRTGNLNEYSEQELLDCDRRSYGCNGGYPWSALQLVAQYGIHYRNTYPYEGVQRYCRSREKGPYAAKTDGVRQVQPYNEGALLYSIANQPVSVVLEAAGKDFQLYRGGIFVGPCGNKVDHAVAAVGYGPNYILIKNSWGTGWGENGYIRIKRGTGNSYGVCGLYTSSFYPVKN

On to CPA (papaya cystatin, Carcia papaya), for which, in the assay with papain [1], the Ka was 5e+07 M⁻¹; the Kd (in general, a measure of binding affinity in units of concentration) is 20 nM; the koff (in general, the rate constant with which the complex falls apart) is 0.0052 s⁻¹; the on-rate constant (kon) (usually a measure of how fast the partners come together) stood at 260000 M⁻¹ s⁻¹.

Consider “CUN (satsuma orange cystatin, Citrus unshiu)”, for which, in the assay with papain [1], the Ka turned out to be 7.3e+07 M⁻¹, the Kd is 14 nM, the koff was determined as 0.0035 s⁻¹ and the kon stood at 260000 M⁻¹ s⁻¹.

The substance “OSA-IΔD86 (modified oryzacystatin I lacking residue Asp86) (from UniProt P09229 39-140)” came in with an IC50, papain inhibition (substrate pGlu-Phe-Leu-p-nitroanilide) with papain [2] of 1.8e-07 M. Further, in the assay with papain [1], the Ka is 2.1e+08 M⁻¹, the dissociation constant (Kd) was found to be 4.7 nM, the koff is 0.0012 s⁻¹ and the kon was 260000 M⁻¹ s⁻¹. Besides, the Kd with papain [3] came out at 47 nM.

The values above are taken from patent US20160032278A1.
